Experiment [1] concerns the target T1, human PD-1 expressed on the surface of CHO cells (human, UniProt Q15116 25-288).
T1 construct: I took it as human PD-1; also called CHO-PD1
Description: flow cytometry cell binding on CHO cells expressing human PD-1; PE anti-human IgG detection; one site-specific binding with Hill slope fit. The method, then: CHO-k cells stably expressing PD-1 or LAG3 (human or cynomolgus) on the cell surface were used to assess binding affinity of anti-PD-1/LAG3 bispecific antibody constructs. Cells were seeded at 100,000 cells/well in 100 μL of FACS buffer (1×PBS, 0.5% BSA, 0.1% sodium azide) in 96-well polypropylene plates. The cells were centrifuged at 1.5K rpm and resuspended with test antibodies diluted in FACS buffer and incubated on ice for 1 hour. The cells were washed twice with FACS buffer and incubated on ice for 30 mins with R-Phycoerythrin-AffiniPure F(ab′)2 Fragment Goat Anti-Human IgG (H+L) secondary detection antibody (1:200 dilution, Jackson ImmunoResearch Laboratories, West Grove, Pa.). The cells were washed twice with FACS buffer, fixed in 4% paraformaldehyde in PBS (Santa Cruz Biotechnology; Dallas, Tex.) for 20 mins on ice in the dark, washed twice with FACS buffer, and analyzed using the BD LSR II Flow Cytometer (BD Biosciences; San Jose, Calif.). Data were analyzed using FlowJo (FlowJo, LLC; Ashland, Oreg.) to determine mean fluorescence intensities. Binding constants were calculated using the statistical software, GraphPad Prism (GraphPad Software; La Jolla, Calif.) using the nonlinear regression equation, one site—specific binding with Hill slope. The secondary antibody by itself was used as a control.
(In flow cytometry, cells or beads pass a laser one at a time.)

The target in experiment [2] is T2, recombinant human LAG3 protein (rhLAG3), HIS-tagged (ACRO) or biotinylated (R&D Cat #2319-C3) (human, UniProt P18627 23-450, biotinylated in part of the assays).
T2 sequence: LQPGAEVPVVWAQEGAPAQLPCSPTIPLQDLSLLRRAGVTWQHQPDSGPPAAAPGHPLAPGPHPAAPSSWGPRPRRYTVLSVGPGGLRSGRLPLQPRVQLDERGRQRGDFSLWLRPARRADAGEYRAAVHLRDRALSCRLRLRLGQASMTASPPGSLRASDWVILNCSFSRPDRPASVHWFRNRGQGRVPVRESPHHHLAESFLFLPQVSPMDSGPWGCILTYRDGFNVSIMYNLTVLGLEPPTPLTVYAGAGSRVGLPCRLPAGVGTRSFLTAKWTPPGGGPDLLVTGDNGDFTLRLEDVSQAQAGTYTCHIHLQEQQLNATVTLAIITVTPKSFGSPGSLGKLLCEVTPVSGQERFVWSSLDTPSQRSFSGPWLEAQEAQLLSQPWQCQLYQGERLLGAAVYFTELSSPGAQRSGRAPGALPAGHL
The experiment can be described thus: flow cytometry competition: inhibition of biotinylated rhLAG3 binding to MHC class II on Daudi cells; PE-streptavidin detection. The method, then:
Daudi cells expressing Major Histocompatibility Class II (MHCII) molecules, the natural ligand for LAG3, were used to measure the ability of anti-PD1/LAG3 bi-specific antibody constructs to block biotinylated (ThermoFisher, Cat #21329) recombinant human LAG3 protein (rhLAG3, R&D Cat #2319-C3) binding. Cells were seeded at 100,000 cells/well in 100 μL of FACS buffer in 96-well polypropylene plates. The cells were centrifuged and resuspended with test antibodies (2× concentration) diluted in FACS buffer, immediately followed by equal volume of biotinylated rhLAG3 (added at 2× concentration; 7.5 μg/mL final). Cells were incubated on ice for 1 hour and washed twice. Biotinylated rhLAG3 binding was detected with 2 μg/mL R-Phycoerythrin-conjugated Streptavidin (eBioscience) for 30 minutes. Cells were washed twice with FACS buffer, fixed in 4% paraformaldehyde in PBS for 20 mins on ice in the dark, washed twice with FACS buffer, and analyzed using the BD LSR II Flow Cytometer. Data were analyzed using FlowJo (FlowJo, LLC; Ashland, Oreg.) to determine mean fluorescence intensities. Prism 6 software was used to create one site, specific binding with Hill slope curves (Log transform) to determine IC₅₀ values. […]

T1 sequence (Q15116 25-288 limits assumed): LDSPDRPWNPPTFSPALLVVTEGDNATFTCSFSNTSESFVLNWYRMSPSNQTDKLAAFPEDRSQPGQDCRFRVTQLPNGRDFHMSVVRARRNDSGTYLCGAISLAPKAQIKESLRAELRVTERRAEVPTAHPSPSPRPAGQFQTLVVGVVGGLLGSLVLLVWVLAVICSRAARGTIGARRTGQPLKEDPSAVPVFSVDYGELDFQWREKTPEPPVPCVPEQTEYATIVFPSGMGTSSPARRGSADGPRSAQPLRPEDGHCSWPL

B1: PD-1/LAG3 Bi-specific Construct B: aPD1 1353-G10 scFvFc zwB R28T/P30D/H31S V262E; aLAG3 1449-G09.2 Fab zwA V262E (bispecific antibody, human IgG1, kappa)
scFv: EVQLVQSGAEVKKPGASVKVSCKASGYTFDSYGISWVRQAPGQGLEWMGWISAYNGNTNYAQKLQGRVTMTTDTSTNTAYMELRSLRSDDTAVYYCARDVDYGTGSGYWGQGTLVTVSSGGGGSGGGGSGGGGSSYELTQPPSVSVSPGQTARITCSGDALPKQYAYWYQQKPGQAPVMVIYKDTERPSGIPERFSGSSSGTKVTLTISGVQAEDEADYYCQSADNSITYRVFGGGTKVTVLAAGSDQEPKSSDKTHTCPPCPAPELLGGPSVFLFPPKPKDTLMISRTPEVTCEVVDVSHEDPEVKFNWYVDGVEVHNAKTKPREEQYNSTYRVVSVLTVLHQDWLNGKEYKCKVSNKALPAPIEKTISKAKGQPREPQVYVLPPSREEMTKNQVSLLCLVKGFYPSDIAVEWESNGQPENNYLTWPPVLDSDGSFFLYSKLTVDKSRWQQGNVFSCSVMHEALHNHYTQKSLSLSPGK
heavy: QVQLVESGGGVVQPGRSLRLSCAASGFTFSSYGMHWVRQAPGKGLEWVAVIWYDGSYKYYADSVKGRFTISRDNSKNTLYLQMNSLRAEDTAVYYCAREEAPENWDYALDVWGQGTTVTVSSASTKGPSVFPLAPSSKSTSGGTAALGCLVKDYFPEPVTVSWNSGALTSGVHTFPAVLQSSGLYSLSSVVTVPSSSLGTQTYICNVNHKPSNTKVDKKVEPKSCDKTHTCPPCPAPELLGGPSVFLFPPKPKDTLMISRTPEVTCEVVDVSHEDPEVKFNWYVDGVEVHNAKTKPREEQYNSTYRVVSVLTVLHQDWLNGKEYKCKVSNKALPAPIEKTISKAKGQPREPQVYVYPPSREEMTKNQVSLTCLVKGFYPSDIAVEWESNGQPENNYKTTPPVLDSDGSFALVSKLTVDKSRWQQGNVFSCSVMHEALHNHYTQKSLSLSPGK
light: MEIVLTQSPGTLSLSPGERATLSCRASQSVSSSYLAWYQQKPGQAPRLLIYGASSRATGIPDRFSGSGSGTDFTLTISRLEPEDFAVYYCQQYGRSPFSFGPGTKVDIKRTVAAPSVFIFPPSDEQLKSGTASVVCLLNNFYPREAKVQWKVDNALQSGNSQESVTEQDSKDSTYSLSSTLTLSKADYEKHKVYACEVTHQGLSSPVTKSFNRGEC
notes: The N-terminal Met is not included
For orientation: Kd means the free concentration of one partner at which half of the binding sites on the other are occupied at equilibrium, for simple one-to-one binding. The term IC50 denotes the concentration at which inhibition is half-maximal. As to B1, in experiment [1], the Bmax is 1970 MFI and the Kd worked out at 4.3 nM. In experiment [2], the IC50 was found to be 24 nM.

B2: PD-1/LAG3 Bi-specific Construct C: aPD1 1353-G10 Vk1-39LC scFvFc zwB V262E; aLAG3 1449-G09.2 Fab zwA V262E (bispecific antibody, human IgG1, kappa)
scFv: EVQLVQSGAEVKKPGASVKVSCKASGYRFPHYGISWVRQAPGQGLEWMGWISAYNGNTNYAQKLQGRVTMTTDTSTNTAYMELRSLRSDDTAVYYCARDVDYGTGSGYWGQGTLVTVSSGGGGSGGGGSGGGGSDIQLTQSPSSLSASVGDRVTITCSGDALPKQYAYWYQQKPGKAPKLLIYKDTERPSGVPSRFSGSSSGTKVTLTISSLQPEDFATYYCQSADNSITYRVFGGGTKVEIKAAGSDQEPKSSDKTHTCPPCPAPELLGGPSVFLFPPKPKDTLMISRTPEVTCEVVDVSHEDPEVKFNWYVDGVEVHNAKTKPREEQYNSTYRVVSVLTVLHQDWLNGKEYKCKVSNKALPAPIEKTISKAKGQPREPQVYVLPPSREEMTKNQVSLLCLVKGFYPSDIAVEWESNGQPENNYLTWPPVLDSDGSFFLYSKLTVDKSRWQQGNVFSCSVMHEALHNHYTQKSLSLSPGK
heavy: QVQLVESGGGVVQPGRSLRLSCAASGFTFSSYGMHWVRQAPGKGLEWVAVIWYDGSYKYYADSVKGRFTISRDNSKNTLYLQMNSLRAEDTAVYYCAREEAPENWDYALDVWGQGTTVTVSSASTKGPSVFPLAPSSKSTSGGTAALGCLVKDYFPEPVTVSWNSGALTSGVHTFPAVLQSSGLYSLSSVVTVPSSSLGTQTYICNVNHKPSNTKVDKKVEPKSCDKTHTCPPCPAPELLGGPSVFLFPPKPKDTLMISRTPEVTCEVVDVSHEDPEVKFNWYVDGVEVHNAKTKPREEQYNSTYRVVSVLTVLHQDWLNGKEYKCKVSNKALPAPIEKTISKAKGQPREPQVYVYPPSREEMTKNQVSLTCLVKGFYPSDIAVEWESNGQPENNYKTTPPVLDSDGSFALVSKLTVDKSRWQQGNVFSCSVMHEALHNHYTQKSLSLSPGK
light: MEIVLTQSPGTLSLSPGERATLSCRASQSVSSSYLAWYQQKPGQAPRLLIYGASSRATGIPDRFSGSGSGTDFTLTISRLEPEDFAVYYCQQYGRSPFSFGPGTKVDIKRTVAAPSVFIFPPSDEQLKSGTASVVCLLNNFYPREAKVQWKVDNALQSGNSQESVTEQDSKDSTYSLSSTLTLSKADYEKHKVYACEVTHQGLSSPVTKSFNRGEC
notes: as for B1
In experiment [1], B2 showed a Bmax of 3660 MFI and a Kd of 1.5 nM. Besides, the concentration for half-maximal inhibition (IC50) in experiment [2] is 24 nM.

For the origin of these results see patent publication US20200079850A1 (SUTRO BIOPHARMA, published 2020).
